PMC10786891, “Massively parallel profiling of RNA-targeting CRISPR-Cas13d”

Target: T1, EsCas13d, nuclease-dead (Eubacterium siraeum, UniProt B0MS50, R295A;H300A;R849A;H854A)
T1 sequence: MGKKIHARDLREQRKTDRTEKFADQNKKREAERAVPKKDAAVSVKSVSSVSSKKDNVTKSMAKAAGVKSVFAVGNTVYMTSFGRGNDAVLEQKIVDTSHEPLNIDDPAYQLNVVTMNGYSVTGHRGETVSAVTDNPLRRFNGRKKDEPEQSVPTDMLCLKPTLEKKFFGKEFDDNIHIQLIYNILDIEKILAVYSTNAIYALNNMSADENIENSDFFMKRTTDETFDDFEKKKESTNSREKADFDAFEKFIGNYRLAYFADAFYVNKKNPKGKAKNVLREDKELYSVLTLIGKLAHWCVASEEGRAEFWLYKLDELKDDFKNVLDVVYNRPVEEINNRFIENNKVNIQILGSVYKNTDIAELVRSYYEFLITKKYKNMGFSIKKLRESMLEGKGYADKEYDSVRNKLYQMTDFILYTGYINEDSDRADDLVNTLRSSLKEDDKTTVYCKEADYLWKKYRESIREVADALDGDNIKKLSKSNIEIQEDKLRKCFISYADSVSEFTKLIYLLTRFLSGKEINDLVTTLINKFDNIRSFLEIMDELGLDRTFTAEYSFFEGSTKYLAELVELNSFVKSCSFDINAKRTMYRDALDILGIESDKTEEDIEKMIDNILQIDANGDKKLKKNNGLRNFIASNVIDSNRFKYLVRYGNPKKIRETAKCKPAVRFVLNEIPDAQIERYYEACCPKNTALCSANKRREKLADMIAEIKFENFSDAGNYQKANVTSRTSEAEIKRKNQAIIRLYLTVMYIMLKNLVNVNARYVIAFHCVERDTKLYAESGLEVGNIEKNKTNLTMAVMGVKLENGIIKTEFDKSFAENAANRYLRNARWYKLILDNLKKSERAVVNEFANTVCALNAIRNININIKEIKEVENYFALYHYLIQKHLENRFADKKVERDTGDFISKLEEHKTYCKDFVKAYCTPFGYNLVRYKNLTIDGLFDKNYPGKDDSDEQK
Assay: crRNA (strand 1, pre-loaded); Mg2+; 40 mM Tris-HCl pH 7.5, 150 mM NaCl, 6 mM MgCl2, 1 mM DTT, 0.1% Tween-20, 0.2 mg/ml BSA; 25 C; 10 min per concentration, then washed
Details: tags: His6-TwinStrep-SUMO cleaved; N-terminal SNAP kept (SNAP-Surface 488); label: 3' end held by stalled T7 RNA polymerase

Row | Binder | Kd [nM]
1 | target 1 C2G,A14C (mixed) RNA 1: CACCCGUGCAAAAAUGCAGGGGUCUAAAACUGAGCGGAUAACCUCUCUAUGG RNA 2: GGGAAUGGAUCCACAUCUACGAAUUCGUACCAUAGAGCGGUUAUCCGCUGACCGAGAUCGGAAGAGCACACGU | 44.8 ± 3.3
2 | target 1 C2A,G17U (mixed) RNA 1: CACCCGUGCAAAAAUGCAGGGGUCUAAAACUGAGCGGAUAACCUCUCUAUGG RNA 2: GGGAAUGGAUCCACAUCUACGAAUUCGUACCAUAUAGAGGUUAUCCGCUAACCGAGAUCGGAAGAGCACACGU | 30.5 ± 2.6
3 | target 1 C2U,C4U (mixed) RNA 1: CACCCGUGCAAAAAUGCAGGGGUCUAAAACUGAGCGGAUAACCUCUCUAUGG RNA 2: GGGAAUGGAUCCACAUCUACGAAUUCGUACCAUAGAGAGGUUAUCCGUUUACCGAGAUCGGAAGAGCACACGU | 58 ± 17
4 | target 1 insG 3' of 3,insA 3' of 2 (mixed) RNA 1: CACCCGUGCAAAAAUGCAGGGGUCUAAAACUGAGCGGAUAACCUCUCUAUGG RNA 2: GGGAAUGGAUCCACAUCUACGAAUUCGUACCAUAGAGAGGUUAUCCGCUGCAACCGAGAUCGGAAGAGCACACGU | 6.5 ± 0.4
5 | target 3 G3C,C6U (mixed) RNA 1: CACCCGUGCAAAAUUGCAGGGGUCUAAAACGACCUGAAUAUUUCAGAUCAAA RNA 2: GGGAAUGGAUCCACAUCUACGAAUUCGUUUUUGAUCUGAAAUAUUUAGCUCUGCAGAUCGGAAGAGCACACGU | 13.1 ± 0.95
6 | target 3 G4C,U21C (mixed) RNA 1: CACCCGUGCAAAAUUGCAGGGGUCUAAAACGACCUGAAUAUUUCAGAUCAAA RNA 2: GGGAAUGGAUCCACAUCUACGAAUUCGUUUCUGAUCUGAAAUAUUCACGUCUGCAGAUCGGAAGAGCACACGU | 60 ± 21
7 | target 3 G4U,U7C (mixed) RNA 1: CACCCGUGCAAAAUUGCAGGGGUCUAAAACGACCUGAAUAUUUCAGAUCAAA RNA 2: GGGAAUGGAUCCACAUCUACGAAUUCGUUUUUGAUCUGAAAUAUCCAUGUCUGCAGAUCGGAAGAGCACACGU | 120 ± 40
8 | target 3 insA 3' of 10,insU 3' of 6 (mixed) RNA 1: CACCCGUGCAAAAUUGCAGGGGUCUAAAACGACCUGAAUAUUUCAGAUCAAA RNA 2: GGGAAUGGAUCCACAUCUACGAAUUCGUUUUUGAUCUGAAAUAAUUCUAGGUCUGCAGAUCGGAAGAGCACACGU | 79.5 ± 14.5
9 | target 3 U21A,U22C (mixed) RNA 1: CACCCGUGCAAAAUUGCAGGGGUCUAAAACGACCUGAAUAUUUCAGAUCAAA RNA 2: GGGAAUGGAUCCACAUCUACGAAUUCGUUCAUGAUCUGAAAUAUUCAGGUCUGCAGAUCGGAAGAGCACACGU | 37.3 ± 5.65
10 | target 3 insG 3' of 8,insU 3' of 3 (mixed) RNA 1: CACCCGUGCAAAAUUGCAGGGGUCUAAAACGACCUGAAUAUUUCAGAUCAAA RNA 2: GGGAAUGGAUCCACAUCUACGAAUUCGUUUUUGAUCUGAAAUAUGUCAGGUUCUGCAGAUCGGAAGAGCACACGU | 85.5 ± 29.5
11 | target 3 C1G,A9G (mixed) RNA 1: CACCCGUGCAAAAUUGCAGGGGUCUAAAACGACCUGAAUAUUUCAGAUCAAA RNA 2: GGGAAUGGAUCCACAUCUACGAAUUCGUUUUUGAUCUGAAAUGUUCAGGUGUGCAGAUCGGAAGAGCACACGU | 33.5 ± 8.5
12 | target 3 C6U,U8A (mixed) RNA 1: CACCCGUGCAAAAUUGCAGGGGUCUAAAACGACCUGAAUAUUUCAGAUCAAA RNA 2: GGGAAUGGAUCCACAUCUACGAAUUCGUUUUUGAUCUGAAAUAAUUAGGUCUGCAGAUCGGAAGAGCACACGU | 50.8 ± 4.85
13 | target 3 U2C,G14U (mixed) RNA 1: CACCCGUGCAAAAUUGCAGGGGUCUAAAACGACCUGAAUAUUUCAGAUCAAA RNA 2: GGGAAUGGAUCCACAUCUACGAAUUCGUUUUUGAUCUUAAAUAUUCAGGCCUGCAGAUCGGAAGAGCACACGU | 82 ± 34
14 | target 3 U21C,U22A (mixed) RNA 1: CACCCGUGCAAAAUUGCAGGGGUCUAAAACGACCUGAAUAUUUCAGAUCAAA RNA 2: GGGAAUGGAUCCACAUCUACGAAUUCGUUACUGAUCUGAAAUAUUCAGGUCUGCAGAUCGGAAGAGCACACGU | 30.5 ± 7
15 | target 3 insG 3' of 22,insG 3' of 22 (mixed) RNA 1: CACCCGUGCAAAAUUGCAGGGGUCUAAAACGACCUGAAUAUUUCAGAUCAAA RNA 2: GGGAAUGGAUCCACAUCUACGAAUUCGUUUGGUUGAUCUGAAAUAUUCAGGUCUGCAGAUCGGAAGAGCACACGU | 64.5 ± 13.5
16 | target 3 insA 3' of 14,insG 3' of 2 (mixed) RNA 1: CACCCGUGCAAAAUUGCAGGGGUCUAAAACGACCUGAAUAUUUCAGAUCAAA RNA 2: GGGAAUGGAUCCACAUCUACGAAUUCGUUUUUGAUCUGAAAAUAUUCAGGUGCUGCAGAUCGGAAGAGCACACGU | 32.8 ± 3.65
17 | target 3 insU 3' of 22,insG 3' of 7 (mixed) RNA 1: CACCCGUGCAAAAUUGCAGGGGUCUAAAACGACCUGAAUAUUUCAGAUCAAA RNA 2: GGGAAUGGAUCCACAUCUACGAAUUCGUUUUUUGAUCUGAAAUAUUGCAGGUCUGCAGAUCGGAAGAGCACACGU | 85 ± 26.5
18 | target 3 G3C,G4U (mixed) RNA 1: CACCCGUGCAAAAUUGCAGGGGUCUAAAACGACCUGAAUAUUUCAGAUCAAA RNA 2: GGGAAUGGAUCCACAUCUACGAAUUCGUUUUUGAUCUGAAAUAUUCAUCUCUGCAGAUCGGAAGAGCACACGU | 18.3 ± 3.2
19 | target 3 insA 3' of 22,insG 3' of 2 (mixed) RNA 1: CACCCGUGCAAAAUUGCAGGGGUCUAAAACGACCUGAAUAUUUCAGAUCAAA RNA 2: GGGAAUGGAUCCACAUCUACGAAUUCGUUUAUUGAUCUGAAAUAUUCAGGUGCUGCAGAUCGGAAGAGCACACGU | 32.9 ± 4.15
20 | target 3 G19U,U22A (mixed) RNA 1: CACCCGUGCAAAAUUGCAGGGGUCUAAAACGACCUGAAUAUUUCAGAUCAAA RNA 2: GGGAAUGGAUCCACAUCUACGAAUUCGUUAUUUAUCUGAAAUAUUCAGGUCUGCAGAUCGGAAGAGCACACGU | 80 ± 7
21 | target 3 insG 3' of 22,insG 3' of 2 (mixed) RNA 1: CACCCGUGCAAAAUUGCAGGGGUCUAAAACGACCUGAAUAUUUCAGAUCAAA RNA 2: GGGAAUGGAUCCACAUCUACGAAUUCGUUUGUUGAUCUGAAAUAUUCAGGUGCUGCAGAUCGGAAGAGCACACGU | 61 ± 23
22 | target 3 U2A,U7G (mixed) RNA 1: CACCCGUGCAAAAUUGCAGGGGUCUAAAACGACCUGAAUAUUUCAGAUCAAA RNA 2: GGGAAUGGAUCCACAUCUACGAAUUCGUUUUUGAUCUGAAAUAUGCAGGACUGCAGAUCGGAAGAGCACACGU | 62.5 ± 10.5
23 | target 3 insC 3' of 8,insA 3' of 3 (mixed) RNA 1: CACCCGUGCAAAAUUGCAGGGGUCUAAAACGACCUGAAUAUUUCAGAUCAAA RNA 2: GGGAAUGGAUCCACAUCUACGAAUUCGUUUUUGAUCUGAAAUAUCUCAGGAUCUGCAGAUCGGAAGAGCACACGU | 93 ± 27
24 | target 3 U2C,G4U (mixed) RNA 1: CACCCGUGCAAAAUUGCAGGGGUCUAAAACGACCUGAAUAUUUCAGAUCAAA RNA 2: GGGAAUGGAUCCACAUCUACGAAUUCGUUUUUGAUCUGAAAUAUUCAUGCCUGCAGAUCGGAAGAGCACACGU | 23 ± 5
25 | target 3 insU 3' of 13,insU 3' of 3 (mixed) RNA 1: CACCCGUGCAAAAUUGCAGGGGUCUAAAACGACCUGAAUAUUUCAGAUCAAA RNA 2: GGGAAUGGAUCCACAUCUACGAAUUCGUUUUUGAUCUGAUAAUAUUCAGGUUCUGCAGAUCGGAAGAGCACACGU | 64.5 ± 20
26 | target 3 G4U,A9G (mixed) RNA 1: CACCCGUGCAAAAUUGCAGGGGUCUAAAACGACCUGAAUAUUUCAGAUCAAA RNA 2: GGGAAUGGAUCCACAUCUACGAAUUCGUUUUUGAUCUGAAAUGUUCAUGUCUGCAGAUCGGAAGAGCACACGU | 37.5 ± 4
27 | target 3 insA 3' of 10,insA 3' of 8 (mixed) RNA 1: CACCCGUGCAAAAUUGCAGGGGUCUAAAACGACCUGAAUAUUUCAGAUCAAA RNA 2: GGGAAUGGAUCCACAUCUACGAAUUCGUUUUUGAUCUGAAAUAAUAUCAGGUCUGCAGAUCGGAAGAGCACACGU | 110 ± 28
28 | target 3 insC 3' of 11,insU 3' of 3 (mixed) RNA 1: CACCCGUGCAAAAUUGCAGGGGUCUAAAACGACCUGAAUAUUUCAGAUCAAA RNA 2: GGGAAUGGAUCCACAUCUACGAAUUCGUUUUUGAUCUGAAACUAUUCAGGUUCUGCAGAUCGGAAGAGCACACGU | 74.5 ± 33.5
